Like-named read-outs stand apart in the source and are kept apart here.
Legend:
[1] = target: human Cdc42 (residues 1-191) (human) (UniProt P60953)
[2] = target: human RhoA (residues 1-193) (human) (UniProt P61586)
[3] = target: human Cdc42 (residues 1-191) (human) (UniProt P60953); experiment: ITC
[4] = target: human RhoA (residues 1-193) (human) (UniProt P61586); experiment: ITC
[5] = target: human Cdc42 (residues 1-191) (human) (UniProt P60953); experiment: ITC; remark: listed apart in the source
[6] = target: human Rac1 (residues 1-192) (human) (UniProt P63000); experiment: ITC
[7] = target: human RhoA (residues 1-193) (human) (UniProt P61586); experiment: ITC; remark: listed apart in the source
[8] = target: human Cdc42 (residues 1-191) (human) (UniProt P60953); remark: listed apart in the source
[9] = target: human RhoA (residues 1-193) (human) (UniProt P61586); remark: listed apart in the source

Sequence of UniProt P60953 (P60953 whole entry, the tested form may be a part): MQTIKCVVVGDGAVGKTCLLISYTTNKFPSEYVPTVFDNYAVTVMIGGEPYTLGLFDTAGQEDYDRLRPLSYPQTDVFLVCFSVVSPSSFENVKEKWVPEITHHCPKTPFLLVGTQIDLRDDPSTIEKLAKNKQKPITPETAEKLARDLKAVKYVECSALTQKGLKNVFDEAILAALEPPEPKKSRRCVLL
Sequence of UniProt P61586 (P61586 whole entry, the tested form may be a part): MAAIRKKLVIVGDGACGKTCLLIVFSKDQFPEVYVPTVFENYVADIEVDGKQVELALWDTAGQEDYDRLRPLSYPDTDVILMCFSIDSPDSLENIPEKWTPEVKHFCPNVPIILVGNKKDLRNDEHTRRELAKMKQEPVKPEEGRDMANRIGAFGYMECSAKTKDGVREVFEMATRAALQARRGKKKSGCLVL

| Substance | kcat of GAP-stimulated GTP hydrolysis (MESG/PNP assay), GTP·Mg2+-loaded Cdc42 [1] [s⁻¹] | KM of GAP-stimulated GTP hydrolysis (MESG/PNP assay), GTP·Mg2+-loaded RhoA [2] [µM] | kcat of GAP-stimulated GTP hydrolysis (MESG/PNP assay), GTP·Mg2+-loaded RhoA [2] [s⁻¹] | kcat/KM of GAP-stimulated GTP hydrolysis (MESG/PNP assay), GTP·Mg2+-loaded RhoA [2] [M⁻¹ s⁻¹] | Ka [3] [M⁻¹] | dH [3] [kcal/mol] | Ka [4] [M⁻¹] | dH [4] [kcal/mol] | Ka [5] [M⁻¹] | dH [5] [kcal/mol] | stoichiometry N [5] | fold lower KA than for Cdc42 (m1 with m18) [6] [fold] | fold lower KA than for RhoA (m1 with m19) [6] [fold] | Ka [7] [M⁻¹] | dH [7] [kcal/mol] | stoichiometry N [7] | KM of GAP-stimulated GTP hydrolysis (MESG/PNP assay), GTP·Mg2+-loaded Cdc42 [8] [µM] | kcat/KM of GAP-stimulated GTP hydrolysis (MESG/PNP assay), GTP·Mg2+-loaded Cdc42 [8] [M⁻¹ s⁻¹] | KM of GAP-stimulated GTP hydrolysis (MESG/PNP assay), GTP·Mg2+-loaded RhoA [9] [µM] | kcat/KM of GAP-stimulated GTP hydrolysis (MESG/PNP assay), GTP·Mg2+-loaded RhoA [9] [M⁻¹ s⁻¹] |
| --- | --- | --- | --- | --- | --- | --- | --- | --- | --- | --- | --- | --- | --- | --- | --- | --- | --- | --- | --- | --- |
| GAP domain of Graf (GTPase Regulator Associated with Focal Adhesion Kinase), wild type (domain or fragment) | 3.65 | 6.8 | 1.46 | 217000 | 26100 | 5.47 | 33800 | 1.6 | 2.42e+06 | 15 | 1 | 100 | > 20 | 554000 | 13 | 1 | – | – | – | – |
| GAP^Graf E253K (domain or fragment) | – | – | – | – | – | – | – | – | 445000 | 10.5 | – | – | – | 643000 | 12 | – | 10.2 | 457000 | 8.8 | 413000 |
| GAP^Graf I358E (domain or fragment) | – | – | – | – | – | – | – | – | 97000 | 4.64 | – | – | – | 33000 | 3.92 | – | 12.4 | – | – | – |
| GAP^Graf V224K (domain or fragment) | – | – | – | – | – | – | – | – | 92000 | 10.5 | – | – | – | 338000 | 16.8 | – | 10.2 | 457000 | 10.3 | – |
| GAP^Graf V338A (domain or fragment) | – | – | – | – | – | – | – | – | 203000 | 16.9 | – | – | – | 93000 | 14.5 | – | 5.9 | 243000 | 31.3 | 26700 |

The next lines start with the values.

| kcat of GAP-stimulated GTP hydrolysis (MESG/PNP assay), GTP·Mg2+-loaded Cdc42 [1] [s⁻¹] | KM of GAP-stimulated GTP hydrolysis (MESG/PNP assay), GTP·Mg2+-loaded RhoA [2] [µM] | kcat of GAP-stimulated GTP hydrolysis (MESG/PNP assay), GTP·Mg2+-loaded RhoA [2] [s⁻¹] | kcat/KM of GAP-stimulated GTP hydrolysis (MESG/PNP assay), GTP·Mg2+-loaded RhoA [2] [M⁻¹ s⁻¹] | Ka [3] [M⁻¹] | dH [3] [kcal/mol] | Ka [4] [M⁻¹] | dH [4] [kcal/mol] | Ka [5] [M⁻¹] | dH [5] [kcal/mol] | stoichiometry N [5] | fold lower KA than for Cdc42 (m1 with m18) [6] [fold] | fold lower KA than for RhoA (m1 with m19) [6] [fold] | Ka [7] [M⁻¹] | dH [7] [kcal/mol] | stoichiometry N [7] | KM of GAP-stimulated GTP hydrolysis (MESG/PNP assay), GTP·Mg2+-loaded Cdc42 [8] [µM] | kcat/KM of GAP-stimulated GTP hydrolysis (MESG/PNP assay), GTP·Mg2+-loaded Cdc42 [8] [M⁻¹ s⁻¹] | KM of GAP-stimulated GTP hydrolysis (MESG/PNP assay), GTP·Mg2+-loaded RhoA [9] [µM] | kcat/KM of GAP-stimulated GTP hydrolysis (MESG/PNP assay), GTP·Mg2+-loaded RhoA [9] [M⁻¹ s⁻¹] | Substance |
| --- | --- | --- | --- | --- | --- | --- | --- | --- | --- | --- | --- | --- | --- | --- | --- | --- | --- | --- | --- | --- |
| – | – | – | – | – | – | – | – | 298000 | 7.48 | – | – | – | 456000 | 10.1 | – | 19.9 | 532000 | 11.3 | 330000 | GAP^Graf E253A (domain or fragment) |
| – | – | – | – | – | – | – | – | 946000 | 14 | – | – | – | 255000 | 14.4 | – | 15 | 333000 | 18.2 | 41700 | GAP^Graf I358A (domain or fragment) |
| – | – | – | – | – | – | – | – | 1.56e+06 | 9.85 | – | – | – | 303000 | 10.7 | – | 8 | 205000 | 24.4 | 205000 | GAP^Graf N225A (domain or fragment) |
| – | – | – | – | – | – | – | – | 773000 | 13.8 | – | – | – | 93000 | 10.3 | – | 11 | 278000 | 25 | 48300 | GAP^Graf R266A (domain or fragment) |
| – | – | – | – | – | – | – | – | 1.18e+06 | 15.9 | – | – | – | 220000 | 9.8 | – | 2.4 | 522000 | 8.7 | 33300 | GAP^Graf V338L (domain or fragment) |

From article PMC2656442
